Test results published in paper PMC7072583, “Intracellular Delivery of DNA and Protein by a Novel Cell-Permeable Peptide Derived from DOT1L” (Biomolecules, 2020).
Ends that are not written are not given here. * marks the point of attachment. FITC = O=C1OC2(c3ccc(O)cc3Oc3cc(O)ccc32)c2ccc(NC(=S)*)cc21; Acp = not defined here

Experiments:
MCF7 cells [1] = assay type: cell-based, human
Description: (§1) All types of cells were suspended in 0.5 mL media and seeded at a density of 1.5 × 10^5 cells/well on a 24-well plate for 24 h. After washing with PBS twice, the indicated cells were incubated with indicated concentrations of FITC-CPP-Dot1l, FITC-NCO peptides, or purified protein in 0.5 mL serum-free media/well for 1 h. After incubation, cells were rinsed three times in PBS and then imaged by fluorescence microscopy (Nikon, Tokyo, Japan). To evaluate the cellular uptake efficiency of indicated treatment, the cellular uptake of indicated concentration of CPP was quantified with multimode spectrophotometry (Tecan, Mannedorf, Switzerland). The incubation and wash procedure were the same as above. Cells were then lysed with 0.3 mL/well lysing buffer (0.1 M NaOH) for 10 min and centrifuged at 14,000 rpm for 5 min. The fluorescence intensity in the supernatant was read using Multimode spectrophotometry (Tecan, Mannedorf, Switzerland) at 485 nm excitation and emission at 535 nm. Protein concentration of supernatant was examined by the Bradford protein assay kit following the manufacturer’s recommendation. The fluorescence of cellular uptake is expressed as fluorescence intensity per mg of total cellular protein. Experiments indicated in the text were repeated at least three times.

[2] = system: MCF7, B16, HSC-T6, Caski, and HepG2; experiment: Cellular uptake of FITC-labeled Dot1l peptide in different cell lines; assay type: cell-based, human, mouse, rat
Description: as §1

MCF7 and HSC-T6 cells = experiment: Comparison of penetration efficiency of different CPPs; assay type: cell-based, human, rat; settings: Supplementary Figure S2D
Description: as §1

MCF7 cells [3] = experiment: Uptake mechanism: temperature and endocytosis inhibitors; assay type: cell-based, human
Description: as §1
The uptake mechanism of Dot1l in MCF7 cells was examined through endocytosis inhibitors. Peptide incubation at indicated different temperatures was measured to investigate the influence of temperature on peptide internalization (physical means of inhibition of endocytosis). […] The uptake efficiency was detected using the same protocol as the one shown above.

HSC-T6 cells [4] = experiment: MTT cytotoxicity assay; assay type: cell-based, rat; settings: HSC-T6, range of peptide concentrations, 24 h and 48 h, n = 3, p > 0.05
Description: (§2) HSC-T6 and MCF7 cells were seeded at a density of 8000 cells/well in 96-well culture plates overnight before incubation. The cells were washed with PBS and were treated with Dot1l or Dot1l/pDNA complexes of different concentrations at the indicated times. After rinsing with PBS, 20 μL of 5 mg/mL MTT in PBS solution were added to 80 μL of serum-free media and incubated for 4 h. After that, the culture medium was discarded and 150 μL of dimethyl sulfoxide (DMSO) were added into each well to dissolve the formazan crystals. The absorbance of DMSO-dissolved solution was read in a Multiskan Spectrum (Thermo Fisher Scientific, Waltham, MA, USA) reader at 490 nm.

MCF7 cells [5] = experiment: MTT cytotoxicity assay; assay type: cell-based, human; settings: MCF7, range of peptide concentrations, 24 h and 48 h, n = 3, p > 0.05
Description: as §2

red blood cells (RBC) = experiment: Hemolysis assay; assay type: cell-based; settings: 2.5-10 µM, 2 h, absorbance 450 nm, 0.1% Triton X-100 positive control, n = 3, p > 0.05 vs NC
Description: To examine the membrane integrity, red blood cells (RBC) were used to conduct hemolytic analysis. After separation of RBCs by centrifugation for 10 min at 500 rpm, RBCs were collected and carefully washed with PBS. A 20% v/v RBC suspension was used for further experiments. In a typical experiment, 25 μL of RBC suspension were added to 225 μL peptide dilutions at different concentrations. Following 2 h of incubation, samples were centrifuged (500 rpm, 5 min) to discard cells and the membrane fragment. Supernatant samples (50-μL aliquots) were transferred to a clear 96-well plate and hemoglobin absorbance was read at 450 nm. Experimental design contains negative controls and positive controls (RBCs treated with 0.1% Triton X-100).

HSC-T6 cells [6] = experiment: Lactate dehydrogenase leakage assay; assay type: cell-based, rat; settings: HSC-T6, 2.5-10 µM, 1 h, 0.1% TritonX-100 positive control, n = 3, p > 0.05 vs NC
Description: (§3) Lactate dehydrogenase (LDH) assay was conducted to measure the release of lactate dehydrogenase from damaged cells. Cells were seeded at a density of 1.5 × 10^5 cells/well to 24-well plates for overnight culture and peptides at indicated concentrations were added as described above. After 1 h incubation, 50 μL of cell-free supernatant were collected and added to each well, including controls and cell-free wells filled with 50 μL of LDH assay buffer. Reaction was conducted at room temperature (RT) for 10 min according to the manufacturer’s recommendations and the Optical Density (OD) was read in a Multiskan Spectrum (Thermo Fisher Scientific) plate reader at 570 nm.

MCF7 cells [7] = experiment: Lactate dehydrogenase leakage assay; assay type: cell-based, human; settings: MCF7, different concentrations, 1 h; Supplementary Figure S4A
Description: as §3

[8] = Flow cytometry analysis of cell cycle and cell apoptosis; assay type: cell-based; settings: 10 μM peptide
Description: Cells and Dot1l peptide (10 μM), following the same method as described before, were plated with treatment in a six-well plate format. Cells were then harvested and pelleted in washing steps with PBS three times by centrifuging for 5 min at 1023 rpm. The supernatant was removed, and cells were resuspended in PBS. Cells were then fixed in 70% cold ethanol in PBS for 30 min. After washing three times with PBS, the fixed cells were stained with 0.5 mL PI/RNase A solution or with the Annexin-V/PI Apoptosis Detection Kit (Elabscience, Wuhan, China), following the recommended methods. Quantification of cell cycle states or cell apoptosis was acquired by fluorescence of each sample in BD FACSVerse™ flow cytometer.

Question: With “FITC-(Acp)-KARKKKLNKKGRKMAGRKRGRPKK ({FITC-Acp}-KARKKKLNKKGRKMAGRKRGRPKK; reading uncertain) [Dot1l, FITC-labeled 24-residue arginine-rich cell-penetrating peptide derived from human Dot1l protein]” as the substance, how does the “Fluorescence signal after trypan blue quenching of cell periphery signal” value (MCF7 cells [1]) read?
Answer: the fluorescence signal persisted

Question: And the “Intracellular fluorescence signal with 5% DMSO pretreatment” value (MCF7 cells [1])?
Answer: highly increased

Question: And the “Penetration efficiency with longer incubation time” value (MCF7 cells [1])?
Answer: not promoted

Question: And the “Penetration in different cell lines after 5% DMSO pretreatment” value ([2]; 5% DMSO pretreatment, Supplementary Figure S1C)?
Answer: significantly increased

Question: What about the “Penetration in different cell lines” value ([2]; MCF7, B16, HSC-T6, Caski, HepG2, non-DMSO pretreatment condition) of the same substance?
Answer: could penetrate into all different cell lines efficiently without apparent cell line specificity

Question: What about the “Penetration efficiency compared with other CPPs” value (MCF7 and HSC-T6 cells) of the same substance?
Answer: weaker than hPP10, but significantly higher than that of TAT and MT23

Question: And the “Internalization with wartmannin compared with control” value (MCF7 cells [3]; MCF7, 5 μM wartmannin (PI-3 kinase blocking agent))?
Answer: no significant differences

Question: What about the “Internalization with sodium azide” value (MCF7 cells [3]; MCF7, 40 µM sodium azide (oxidative phosphorylation inhibitor)) of the same substance?
Answer: not blocked

Question: And the Uptake with heparin (MCF7 cells [3]; MCF7, 50 μg/mL heparin (HSPG competitor))?
Answer: could not block Dot1l uptake efficiently

Question: And the “Internalization with MβCD compared with control” value (MCF7 cells [3]; MCF7, 5 mM MβCD (lipid raft-mediated endocytosis inhibitor))?
Answer: no significant differences

Question: What about the “Internalization with ammonium chloride” value (MCF7 cells [3]; MCF7, 50 mM ammonium chloride (anti-acidification agent of endocytic vesicles)) of the same substance?
Answer: not blocked

Question: What about the “Internalization with hyperosmotic sucrose compared with control” value (MCF7 cells [3]; MCF7, 450 mM sucrose (clathrin-dependent endocytosis inhibitor)) of the same substance?
Answer: no significant differences

Question: And the “Fluorescence intensity at 37 °C compared with 4 °C” value (MCF7 cells [3]; MCF7, means ± SEM (n = 3))?
Answer: no apparent differences

Question: And the “Fluorescence intensity at 37 °C compared with 25 °C” value (MCF7 cells [3]; MCF7, means ± SEM (n = 3))?
Answer: significantly higher

Question: What about the “Internalization in the presence of serum containing incubation medium” value (MCF7 cells [3]; MCF7, serum (10% FBS)) of the same substance?
Answer: blocked

Question: What about the “Inhibition of cell growth (MTT)” value (HSC-T6 cells [4]) of the same substance?
Answer: no significant inhibition

Question: And the “Inhibition of cell growth (MTT)” value (MCF7 cells [5])?
Answer: no significant inhibition

Question: And the “Membrane disturbance (hemolysis)” value (red blood cells (RBC))?
Answer: no membrane disturbance

Question: What about the “Membrane disturbance (LDH release)” value (HSC-T6 cells [6]) of the same substance?
Answer: no membrane disturbance

Question: And the “Membrane disturbance (LDH release)” value (MCF7 cells [7])?
Answer: no membrane disturbance

Question: What about the “Cell apoptosis, control vs peptide treatment” value ([8]; Annexin-V/PI) of the same substance?
Answer: did not show significant differences

Question: What about the “Cell cycle, control vs peptide treatment” value ([8]; PI/RNase A staining) of the same substance?
Answer: did not show significant differences
